Target: T1, HsRAD51(H294V) H294V (Homo sapiens) (UniProt Q06609)
T1 sequence: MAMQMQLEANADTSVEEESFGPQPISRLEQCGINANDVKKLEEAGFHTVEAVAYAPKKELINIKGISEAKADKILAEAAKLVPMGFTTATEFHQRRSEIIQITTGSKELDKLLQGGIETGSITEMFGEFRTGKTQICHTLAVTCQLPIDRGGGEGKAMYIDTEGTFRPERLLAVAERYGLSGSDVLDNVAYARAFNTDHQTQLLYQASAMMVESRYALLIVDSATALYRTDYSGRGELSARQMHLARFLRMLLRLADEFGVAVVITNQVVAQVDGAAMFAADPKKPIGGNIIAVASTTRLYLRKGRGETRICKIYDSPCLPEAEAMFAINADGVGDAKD
Assay: SPR
Conditions: SPR (Biacore 3000): 20 mM HEPES pH 7.5, 10% glycerol, 1 mM DTT, 1 mM MgCl2, 0.005% P-20, 2.5 mM indicated nucleotide, 150 mM KCl when indicated (text: salt …)

**Q.** For “TCGAGAGGGTAAACCACAATTATTGATATAAAATAGTTTTGGGTAGGCGA (double strand) [50 bp dsDNA]”, which Kd is on record?
**A.** 472 nM
